{
  "source": "paper PMC5758568",
  "about": "“Cryo EM structure of intact rotary H^+-ATPase/synthase from Thermus thermophilus” (Nature Communications, 2018)",
  "molecules": {"B1": {"name": "D-subunit of the V/A-ATPase from Thermus thermophilus (natural protein, UniProt O87880 1-223, looked up)", "chain": "MSQVSPTRMNLLQRRGQLRLAQKGVDLLKKKRDALVAEFFGLVREAMEARKALDQAAKEAYAALLLAQAFDGPEVVAGAALGVPPLEGVEAEVENVWGSKVPRLKATFPDGALLSPVGTPAYTLEASRAFRRYAEALIRVANTETRLKKIGEEIKKTTRRVNALEQVVIPGIRAQIRFIQQVLEQREREDTFRLKRIKGKIEAREAEEEGGRPNPQVEIGAGL", "notes": "V/A-type ATPase D-subunit (central rotor shaft), Thermus thermophilus; native subunit in the isolated whole enzyme; One copy in the enzyme (D1F1d1c12 rotor); also called subunit D; V1-DF (with F)"}},
  "test_in_all_cases": "cryo-EM structure; single particle cryo-EM of the whole V/A-ATPase in TE buffer (20 mM Tris-HCl pH 8.0, 0.1 mM EDTA) with 0.003% LMNG and 100 mM NaCl, no nucleotide added; three rotational states (5.0, 6.7, 7.5 Å), focused V1EGd map of state1 4.7 Å; crystal structures and homology models fitted by MDFF",
  "key": {"[1]": {"target": "c-subunit (subunit L) of the V/A-ATPase from Thermus thermophilus, with His3 tag on the C-terminus (Thermus thermophilus)"}, "[2]": {"target": "T1, d-subunit (subunit C) of the V/A-ATPase from Thermus thermophilus (Thermus thermophilus, UniProt P74902 1-323)", "T1 construct": "native subunit in the isolated whole enzyme; One copy in the enzyme; also called Vo-d", "T1 sequence": "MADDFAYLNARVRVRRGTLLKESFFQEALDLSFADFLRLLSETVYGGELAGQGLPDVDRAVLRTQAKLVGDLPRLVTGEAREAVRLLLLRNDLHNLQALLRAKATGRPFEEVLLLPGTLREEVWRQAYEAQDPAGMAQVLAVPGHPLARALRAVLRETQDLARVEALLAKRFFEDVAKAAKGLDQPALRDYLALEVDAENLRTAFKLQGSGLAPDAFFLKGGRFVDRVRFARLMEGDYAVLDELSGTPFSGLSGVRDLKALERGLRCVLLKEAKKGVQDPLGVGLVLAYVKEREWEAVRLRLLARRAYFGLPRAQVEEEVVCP", "settings": "both partners purified"}, "[3]": {"target": "T2, B-subunit of the V/A-ATPase from Thermus thermophilus (Thermus thermophilus, UniProt Q56404 1-478)", "T2 construct": "V/A-type ATPase B-subunit (V1 part), Thermus thermophilus; native subunit in the isolated whole enzyme; Three copies in the enzyme (A3B3); also called subunit B", "T2 sequence (looked up)": "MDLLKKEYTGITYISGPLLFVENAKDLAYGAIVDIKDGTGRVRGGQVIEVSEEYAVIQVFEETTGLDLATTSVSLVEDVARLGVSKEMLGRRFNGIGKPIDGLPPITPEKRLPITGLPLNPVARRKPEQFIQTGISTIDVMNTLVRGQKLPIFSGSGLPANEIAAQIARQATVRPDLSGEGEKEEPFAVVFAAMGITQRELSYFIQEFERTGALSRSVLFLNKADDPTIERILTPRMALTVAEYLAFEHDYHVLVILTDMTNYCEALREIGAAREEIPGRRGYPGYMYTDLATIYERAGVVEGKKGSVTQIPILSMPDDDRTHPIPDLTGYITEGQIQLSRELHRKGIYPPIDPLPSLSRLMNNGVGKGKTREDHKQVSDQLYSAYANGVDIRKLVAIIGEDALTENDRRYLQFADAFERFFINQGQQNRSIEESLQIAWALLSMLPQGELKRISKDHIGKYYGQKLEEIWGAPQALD", "settings": "both partners purified"}, "[4]": {"target": "B1", "settings": "both partners purified"}},
  "data": [
    {"molecule": "c-subunit (subunit L) of the V/A-ATPase from Thermus thermophilus, with His3 tag on the C-terminus (natural protein)", "values": [
      {"measurement": "stoichiometry N", "setting": "[1]", "result": 12}
    ]},
    {"molecule": "B1", "values": [
      {"measurement": "binding result", "setting": "[2]", "result": "binds"}
    ]},
    {"molecule": "E-subunit of the V/A-ATPase from Thermus thermophilus (natural protein, V/A-type ATPase E-subunit (peripheral stalk), Thermus thermophilus; native subunit in the isolated whole enzyme; Two copies in the enzyme (two EG stalks); also called subunit E; EG stalk (with G)) MSKLEAILSQEVEAEIQALLQEAEAKAEAVKREAEEKAKALLQARERALEAQYRAALRRAESAGELLVATARTQARGEVLEEVRRRVREALEALPQKPEWPEVVRKLALEALEALPGAKALVANPEDLPHLEALARERGVELQAEPALRLGVRAVGAEGKTQVENSLLARLDRAWDALSSKVAQALWG", "values": [
      {"measurement": "binding result", "setting": "[3]", "result": "binds"}
    ]},
    {"molecule": "F-subunit of the V/A-ATPase from Thermus thermophilus (natural protein, V/A-type ATPase F-subunit (central rotor), Thermus thermophilus; native subunit in the isolated whole enzyme; One copy in the enzyme; also called subunit F; V1-DF (with D)) MAVIADPETAQGFRLAGLEGYGASSAEEAQSLLETLVERGGYALVAVDEALLPDPERAVERLMRGRDLPVLLPIAGLKEAFQGHDVEGYMRELVRKTIGFDIKL", "values": [
      {"measurement": "binding result", "setting": "[4]", "result": "binds"}
    ]}
  ]
}
